One experiment concerns the target T1, 4H3129-AA.
T1 chain: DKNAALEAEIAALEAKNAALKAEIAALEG
Description: two-hybrid library CCmax.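 Also: natural log of median RNA to DNA barcode read ratio; higher means stronger binding.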

The next experiment has as its target T2, 4H446-AA.
T2 chain: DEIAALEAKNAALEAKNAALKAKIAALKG
In words: two-hybrid library CCmax.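 Also: natural log of median RNA to DNA barcode read ratio; higher means stronger binding.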 The note with it: mean of both orientations.

The target in the next experiment is T3, 4H3414-AA.
T3 chain: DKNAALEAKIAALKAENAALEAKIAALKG
In words: two-hybrid library CCmax.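 Also: natural log of median RNA to DNA barcode read ratio; higher means stronger binding.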 The conditions noted are these: mean of both orientations.

Another experiment deals with T4, 4H464-AA.
T4 chain: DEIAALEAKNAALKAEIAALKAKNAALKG
Description: two-hybrid library CCmax.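 Also: natural log of median RNA to DNA barcode read ratio; higher means stronger binding.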 The conditions noted are these: mean of both orientations.

The target in another experiment is T5, 4H380-AA.
T5 chain: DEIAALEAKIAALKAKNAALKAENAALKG
In words: two-hybrid library CCmax.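 Also: natural log of median RNA to DNA barcode read ratio; higher means stronger binding.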 The conditions noted are these: mean of both orientations.

A further experiment deals with T6, 4H3782-AA.
T6 chain: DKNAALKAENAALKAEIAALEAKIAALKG
Description: two-hybrid library CCmax.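 Also: natural log of median RNA to DNA barcode read ratio; higher means stronger binding.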 The note with it: mean of both orientations.

The target in the next experiment is T7, 4H3595-AA.
T7 chain: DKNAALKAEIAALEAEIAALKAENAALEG
Description: two-hybrid library CCmax. The conditions noted are these: mean of both orientations.

The next experiment deals with T8, 4H63-AA.
T8 chain: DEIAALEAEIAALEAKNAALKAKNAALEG
In words: two-hybrid library CCmax. The conditions noted are these: mean of both orientations.

For a further experiment, the target named is T9, 4H341-AA.
T9 chain: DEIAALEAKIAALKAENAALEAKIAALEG
In words: two-hybrid library CCmax. The note with it: mean of both orientations.

The target of another experiment is T10, 4H3969-AA.
T10 chain: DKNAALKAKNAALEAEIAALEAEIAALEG
Description: two-hybrid library CCmax. The note with it: mean of both orientations.

The target of the next experiment is T11, 4H3629-AA.
T11 chain: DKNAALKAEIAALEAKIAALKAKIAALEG
In words: two-hybrid library CCmax. The conditions noted are these: mean of both orientations.

The target in another experiment is T12, 4H483-AA.
T12 chain: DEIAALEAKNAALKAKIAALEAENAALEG
In words: two-hybrid library CCmax. The conditions noted are these: mean of both orientations.

A further experiment concerns the target T13, 4H3939-AA.
T13 chain: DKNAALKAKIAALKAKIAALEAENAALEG
Description: two-hybrid library CCmax. The conditions noted are these: mean of both orientations.

The next experiment deals with T14, APC4436-AA.
T14 chain: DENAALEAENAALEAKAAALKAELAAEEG
Description: two-hybrid library CCmax.

A further experiment addresses T15, APC6108-AA.
T15 chain: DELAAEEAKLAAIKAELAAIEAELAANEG
Description: two-hybrid library CCmax. The conditions noted are these: mean of both orientations.

Another experiment has as its target T16, APC5383-AA.
T16 chain: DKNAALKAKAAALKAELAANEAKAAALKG
In words: two-hybrid library CCmax. The conditions noted are these: mean of both orientations.

The target of a further experiment is T17, APC9319-AA.
T17 chain: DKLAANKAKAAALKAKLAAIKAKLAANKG
Description: two-hybrid library CCmax. The conditions noted are these: mean of both orientations.

The target in another experiment is T18, APC8191-AA.
T18 chain: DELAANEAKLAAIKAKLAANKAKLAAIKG
Description: two-hybrid library CCmax. The note with it: mean of both orientations.

Another experiment deals with T19, APC8910-AA.
T19 chain: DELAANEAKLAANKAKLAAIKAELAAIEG
Description: two-hybrid library CCmax. The conditions noted are these: mean of both orientations.

The target in another experiment is T20, APC7099-AA.
T20 chain: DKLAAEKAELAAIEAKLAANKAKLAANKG
Description: two-hybrid library CCmax. The note with it: mean of both orientations.

For another experiment, the target named is T21, APC9096-AA.
T21 chain: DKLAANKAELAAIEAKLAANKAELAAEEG
In words: two-hybrid library CCmax. The note with it: mean of both orientations.

The target in another experiment is T22, P9.
T22 chain: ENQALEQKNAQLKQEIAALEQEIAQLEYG
In words: two-hybrid library CC1. The note with it: mean of both orientations.

A further experiment addresses T23, P8mS.
T23 chain: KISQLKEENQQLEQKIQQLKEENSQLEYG
In words: two-hybrid library CC1.

Among the data in paper PMC10397247 are interaction score values, retold here.

B1: 4H3129-AA (peptide)
chain: DKNAALEAEIAALEAKNAALKAEIAALEG
With B1, the interaction score with 4H3129-AA was -1.5; in the experiment with 4H446-AA it was -2.05; with 4H3414-AA it was 2.24; with 4H464-AA it was -1.78; with 4H380-AA, -1.83; with 4H3782-AA, -1.55. For the same molecule, the interaction score was -1.39 with 4H3595-AA; -2.14 with 4H63-AA; 2.19 with 4H341-AA; -1.84 with 4H3969-AA; -0.839 with 4H3629-AA; -2.19 with 4H483-AA. Further, the interaction score with 4H3939-AA was -1.82.

B2: APC4436-AA (peptide)
chain: DENAALEAENAALEAKAAALKAELAAEEG
Turning to B2, the interaction score is -2.09 with APC4436-AA; -2.03 in the experiment with APC6108-AA; -1.76 in the experiment with APC5383-AA; -1.7 with APC9319-AA; -2.27 in the experiment with APC8191-AA; -1.76 in the experiment with APC8910-AA. Also, the interaction score in the experiment with APC7099-AA is -1.57; with APC9096-AA, -1.96.

B3: P8mS (peptide)
chain: KISQLKEENQQLEQKIQQLKEENSQLEYG
Regarding B3, the interaction score with P9 is -2.35; in the experiment with P8mS, -3.02.
